Results reported in patent US20070118934A1.

Columns and labels:
[1] = target: human rhinovirus serotype HRV-39
[2] = target: human rhinovirus serotype HRV-39; assay: cell-based or functional assay
[3] = target: mouse (anti-human ICAM) monoclonal antibody

Row | Substance | IC50 (read off the curve) [1] [nM] | IC50, cytopathic effect (CPE) assay, HRV-39 on HeLa S3 cells [2] [µg/mL] | fold lower IC50 than soluble ICAM-1, CPE assay [2] [fold] | IC50 (read off the curve) [3] [µg/mL]
1 | ICAM-IgA (Fc fusion) | 3 |  |  | 
2 | IC1-5D/IgA (ICAM/IgA fusion, gift of Dr. Tim Springer; Martin et al. 1993) (from UniProt P05362 28-480; P01876 103-353) (Fc fusion) |  | 0.12 | 11.3 | 
3 | soluble human ICAM-1 (from UniProt P05362 28-480) (receptor) | 40 | 1.35 |  | 0.8
